Laboratory results reported in US7528244 (Amgen, dated 2009).

B1: FADD (other, UniProt Q13158 1-208, looked up)
chain: MDPFLVLLHSVSSSLSSSELTELKFLCLGRVGKRKLERVQSGLDLFSMLLEQNDLEPGHTELLRELLASLRRHDLLRRVDDFEAGAAAGAAPGEEDLCAAFNVICDNVGKDWRRLARQLKVSDTKIDSIEDRYPRNLTERVRESLRIWKNTEKENATVAHLVGALRSCQMNLVADLVQEVQQARDLQNRSGAMSPMSWNSDASTSEAS
notes: also called Flag-tagged FADD; AU1-tagged FADD
B2: caspase-3 (enzyme, UniProt P42574 1-277, looked up)
chain: MENTENSVDSKSIKNLEPKIIHGSESMDSGISLDNSYKMDYPEMGLCIIINNKNFHKSTGMTSRSGTDVDAANLRETFRNLKYEVRNKNDLTREEIVELMRDVSKEDHSKRSSFVCVLLSHGEEGIIFGTNGPVDLKKITNFFRGDRCRSLTGKPKLFIIQACRGTELDCGIETDSGVDDDMACHKIPVEADFLYAYSTAPGYYSWRNSKDGSWFIQSLCAMLKQYADKLEFMHILTRVNRKVATEFESFSFDATFHAKKQIPCIVSMLTKELYFYH
notes: also called caspase-3 precursor

Legend:
Casper (192-480) [1] = target: T1, Casper (192-480) (human, UniProt O15519 192-480); assay: co-immunoprecipitation in 293 cells
T1 construct: also called C-terminal protease-like domain of Casper
T1 sequence (O15519 192-480): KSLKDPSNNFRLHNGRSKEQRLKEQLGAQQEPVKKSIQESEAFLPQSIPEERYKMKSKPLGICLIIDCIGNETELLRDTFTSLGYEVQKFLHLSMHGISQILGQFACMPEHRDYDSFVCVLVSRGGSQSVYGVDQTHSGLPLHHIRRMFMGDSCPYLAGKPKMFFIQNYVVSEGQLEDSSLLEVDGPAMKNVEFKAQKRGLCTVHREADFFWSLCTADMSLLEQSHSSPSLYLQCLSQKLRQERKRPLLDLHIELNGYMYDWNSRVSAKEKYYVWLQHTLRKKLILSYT

CrmA = target: T2, CrmA (UniProt P07385 1-341); assay: co-transfection and co-immunoprecipitation in mammalian cells
T2 construct: also called Myc-CrmA

Casper (192-480) [2] = target: T1, Casper (192-480); assay: anti-Flag immunoprecipitation, caspase-3 immunoblot, 293 cells

Binder	binding result (Casper (192-480) [1])	binding result (CrmA)	binding result (Casper (192-480) [2])
B1	no binding		
B2		no binding	binds
